Patent publication US20090220532A1 (PROYECTO DE BIOMEDICINA CIMA S L, published 2009)

Target: human TLR4 (Toll-like receptor 4) on HEK293 cells expressing human TLR4-MD2-CD14 (human, UniProt O00206 24-839)
Experiment: cell-based or functional assay

Chain of human TLR4 (Toll-like receptor 4) on HEK293 cells expressing human TLR4-MD2-CD14 (O00206 24-839): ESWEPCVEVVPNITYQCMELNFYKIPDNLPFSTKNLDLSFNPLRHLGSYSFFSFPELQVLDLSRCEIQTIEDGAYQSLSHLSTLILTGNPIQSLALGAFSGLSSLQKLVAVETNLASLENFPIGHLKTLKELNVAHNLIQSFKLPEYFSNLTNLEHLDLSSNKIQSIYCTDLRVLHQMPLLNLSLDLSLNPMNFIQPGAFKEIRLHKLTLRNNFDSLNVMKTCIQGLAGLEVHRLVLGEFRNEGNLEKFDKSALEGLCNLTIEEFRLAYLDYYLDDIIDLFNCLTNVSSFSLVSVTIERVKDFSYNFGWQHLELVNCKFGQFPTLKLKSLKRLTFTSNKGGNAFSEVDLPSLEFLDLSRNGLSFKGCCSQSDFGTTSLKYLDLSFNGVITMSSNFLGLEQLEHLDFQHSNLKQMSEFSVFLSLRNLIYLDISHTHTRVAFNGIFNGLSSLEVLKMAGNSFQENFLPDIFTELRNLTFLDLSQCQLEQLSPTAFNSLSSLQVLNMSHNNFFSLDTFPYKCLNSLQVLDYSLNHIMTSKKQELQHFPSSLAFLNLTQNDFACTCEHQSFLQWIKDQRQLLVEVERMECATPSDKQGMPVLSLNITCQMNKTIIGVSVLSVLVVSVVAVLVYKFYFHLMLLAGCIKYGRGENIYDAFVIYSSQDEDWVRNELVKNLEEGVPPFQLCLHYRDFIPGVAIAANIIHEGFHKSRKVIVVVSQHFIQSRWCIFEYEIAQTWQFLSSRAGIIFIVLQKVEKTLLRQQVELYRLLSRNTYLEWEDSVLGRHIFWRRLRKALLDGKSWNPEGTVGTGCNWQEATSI

B1: EDA-SIINFEKL-6xHis fusion protein (recombinant proteinaceous vector) (ligand)
chain: MNIDRPKGLAFTDVDVDSIKIAWESPQGQVSRYRVTYSSPEDGIRELFPAPDGEDDTAELQGLRPGSEYTVSVVALHDDMESQPLIGIQSTQLESIINFEKLTEWAAALEHHHHHH
fold NF-κB induction factor (SEAP reporter under NF-κB-inducible ELAM-1 promoter; OD of HEK293/TLR4-MD2-CD14 supernatants divided by OD of HEK293/LacZ supernatants), 100 nM EDA-SIINFEKL: 7 fold
